The data set concerns the molecule itself. Kind of data set: FRET or BRET. (BRET reads energy transfer from a luciferase to a nearby fluorophore.)

B1: PCNA-WC2-AEDANS (human PCNA N107W-T185C-C27M-W28F-C62M-C81S-C148S-C135S-C162S, labelled with AEDANS at C185) (natural protein)
chain: MFEARLVQGSILKKVLEALKDLINEAMFDISSSGVNLQSMDSSHVSLVQLTLRSEGFDTYRMDRNLAMGVNLTSMSKILKSAGNEDIITLRAEDNADTLALVFEAPWQEKVSDYEMKLMDLDVEQLGIPEQEYSSVVKMPSGEFARISRDLSHIGDAVVISSAKDGVKFSASGELGNGNIKLSQCSNVDKEEEAVTIEMNEPVQLTFALRYLNFFTKATPLSSTVTLSMSADVPLVVEYKIADMGHLKYYLAPKIEDEEGS
modifications: AEDANS on the cysteine at 185 (T185C), labelled with IAEDANS
In the case of B1, the binding result is “binds”.
